What was measured:
[1] = target: Tie1 (Homo sapiens, UniProt P35590); test: Immunohistochemistry of matched tumor and normal tissue sections; format: binding; settings: frozen sections
Experimental: To evaluate the binding of E3 to Tie1 in primary tumor and normal tissue the antibody was produced as an IgG and biotin labeled. The E3 antibody and two other anti Tie1 antibodies B2 and D11 were reformatted as full length IgG molecules. Nucleic acids encoding these IgGs were transiently transfected into HEK293T cells. Plasmid preparations for transient cell transfections were performed using the HP-[…]™ MIDI prep kit (Sigma, cat. no. NA0200). HEK293T cells (GenHunter Corp. cat. no. Q401) were seeded 24 hours before transfection; 6×10^6 cells were plated per 10-cm culture dish. Transfections were carried out using LIPOFECTAMINE™ 2000 reagent (Invitrogen, cat. no. 11668019) following the manufacturer's instructions. Five micrograms of plasmid DNA was used per 10-cm dish. Cells were cultured in DMEM (Invitrogen, cat. no. 31966021) supplemented with 10% “ultra-low IgG” fetal calf serum (Invitrogen, cat. no. 16250078), at 37° C., 5% CO2, in a water saturated atmosphere. Conditioned media were harvested 72 hours and 144 hours after transfection, pooled and sterile filtered.
The Tie1 antibodies were biotinylated using the EZ-link Sulfo-NHS-SS-Biotin (Pierce, Cat. 21331). For Tie1/Fc and Tie1-His, the reaction was performed for 2 hours on ice in 50 mM sodium carbonate buffer, pH 9.6, in the presence of a 5-fold molar excess of biotinylating agent. For the antibodies, the reaction was performed for 2 hours on ice in PBS, in the presence of a 15-fold molar excess of EZ-link Sulfo-NHS-SS-Biotin. The reaction was stopped by the addition of Tris-HCl, pH 7.5 (50 mM final concentration) followed by a 1-hour incubation on ice. Samples were then dialyzed against PBS.
Various normal and tumor tissue sections were stained with biotinylated antibodies. A mouse monoclonal anti-Tie1 antibody (7e8) (Alitalo laboratory, University of Helsinki) was used as a positive control. Sections without primary antibody served as negative control. All samples were fresh frozen tissues and staining was performed with the TSA-kit (Perkin-Elmer Life Sciences). After acetone fixation (10-20 min, −20° C.) the slides were treated with 0.73% H2O2 for 10 min to reduce endogenous peroxidase activity followed by blocking for 30 min with TNB buffer. Sections ([…] thick) were incubated with primary antibodies (10 μg/ml) overnight at 4° C. Sections with the mouse monoclonal anti-tie1 antibody (7e8) were treated with biotinylated anti-mouse antibodies (VectaStain) before the addition of streptavidin-HRP. Signal was amplified by using a TSA kit and the visualized by AEC (235 ml NaAc,15 ml AEC (stock solution: 1600 mg 3-amino-9-ethyl-carbazole and 480 ml N-dimethylformamide), 250 μl H2O2).

[2] = target: T1, human Tie1 Fc (Homo sapiens, UniProt P35590); test: BIAcore, Fab over Tie1/Fc coated on CM5 chip; format: binding; settings: Fab analyte
T1 construct: selected against the Tie1 extracellular domain fused to human Fc or to a histidine purification tag
T1 sequence (P35590 22-759 limits assumed): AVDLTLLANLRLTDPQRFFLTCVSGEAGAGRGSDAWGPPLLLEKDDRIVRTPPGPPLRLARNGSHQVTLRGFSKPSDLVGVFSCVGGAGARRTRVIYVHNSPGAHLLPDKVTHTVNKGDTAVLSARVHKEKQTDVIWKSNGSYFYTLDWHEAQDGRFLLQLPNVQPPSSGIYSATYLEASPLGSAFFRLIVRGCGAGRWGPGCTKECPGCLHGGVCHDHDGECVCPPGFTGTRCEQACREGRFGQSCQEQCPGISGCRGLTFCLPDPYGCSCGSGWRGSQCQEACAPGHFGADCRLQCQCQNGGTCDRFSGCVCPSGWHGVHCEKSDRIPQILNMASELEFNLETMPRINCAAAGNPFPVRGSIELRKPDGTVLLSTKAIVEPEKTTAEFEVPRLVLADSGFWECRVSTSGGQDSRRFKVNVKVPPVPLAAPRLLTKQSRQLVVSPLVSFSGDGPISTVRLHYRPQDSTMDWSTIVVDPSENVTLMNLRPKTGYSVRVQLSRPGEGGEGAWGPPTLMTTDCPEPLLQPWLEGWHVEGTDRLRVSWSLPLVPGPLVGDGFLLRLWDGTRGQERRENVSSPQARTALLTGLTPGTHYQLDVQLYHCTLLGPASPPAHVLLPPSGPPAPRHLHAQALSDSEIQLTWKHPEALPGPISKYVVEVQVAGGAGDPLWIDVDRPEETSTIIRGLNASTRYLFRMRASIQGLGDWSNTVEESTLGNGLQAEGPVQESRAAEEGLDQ
From the text: To evaluate if the binding behaviour had been affected in any way by the conversion of the somatic mutations back to germline residues, the parental and the germlined E3b antibodies were produced and tested in Biacore as Fab fragments. Here, by contrast to what was done for the IgGs (see Example 28), and in order to measure a monovalent interaction, the Fabs were run over the antigen directly coated onto the surface.
Recombinant human Tie1/Fc was coated on a CM5 chip. The surface of the chip was first activated with a 7-minute pulse of 0.05 M NHS/0.2 M EDC, then Tie1/Fc (2 μg/ml in 10 mM sodium acetate, pH 4.0) was run over the chip surface until 750 RUs were coated on the surface. All flow cells were subsequently deactivated with a 7-minute pulse of 1 M ethanolamine hydrochloride, pH 8.5. All further experiments were performed in HBS buffer.
The parental and the germlined E3b Fabs were prepared. A series of dilution (50, 25, 12.5, 6.25 and 3.125 nM) was prepared in HBS buffer. Samples were injected at 30 μl/min for 5.3 minutes using the KINJECT™ program. This was followed by a 10-minute dissociation phase, and the remaining Fab was stripped from the surface with a single 18-sec injection of 50 mM NaOH/1 M NaCl.
Sensorgrams were analyzed using the simultaneous ka/kd fitting program from the BIAEVALUATION™ software 3.1 assuming a 1:1 model.

Sequence of Tie1 (P35590 22-1138): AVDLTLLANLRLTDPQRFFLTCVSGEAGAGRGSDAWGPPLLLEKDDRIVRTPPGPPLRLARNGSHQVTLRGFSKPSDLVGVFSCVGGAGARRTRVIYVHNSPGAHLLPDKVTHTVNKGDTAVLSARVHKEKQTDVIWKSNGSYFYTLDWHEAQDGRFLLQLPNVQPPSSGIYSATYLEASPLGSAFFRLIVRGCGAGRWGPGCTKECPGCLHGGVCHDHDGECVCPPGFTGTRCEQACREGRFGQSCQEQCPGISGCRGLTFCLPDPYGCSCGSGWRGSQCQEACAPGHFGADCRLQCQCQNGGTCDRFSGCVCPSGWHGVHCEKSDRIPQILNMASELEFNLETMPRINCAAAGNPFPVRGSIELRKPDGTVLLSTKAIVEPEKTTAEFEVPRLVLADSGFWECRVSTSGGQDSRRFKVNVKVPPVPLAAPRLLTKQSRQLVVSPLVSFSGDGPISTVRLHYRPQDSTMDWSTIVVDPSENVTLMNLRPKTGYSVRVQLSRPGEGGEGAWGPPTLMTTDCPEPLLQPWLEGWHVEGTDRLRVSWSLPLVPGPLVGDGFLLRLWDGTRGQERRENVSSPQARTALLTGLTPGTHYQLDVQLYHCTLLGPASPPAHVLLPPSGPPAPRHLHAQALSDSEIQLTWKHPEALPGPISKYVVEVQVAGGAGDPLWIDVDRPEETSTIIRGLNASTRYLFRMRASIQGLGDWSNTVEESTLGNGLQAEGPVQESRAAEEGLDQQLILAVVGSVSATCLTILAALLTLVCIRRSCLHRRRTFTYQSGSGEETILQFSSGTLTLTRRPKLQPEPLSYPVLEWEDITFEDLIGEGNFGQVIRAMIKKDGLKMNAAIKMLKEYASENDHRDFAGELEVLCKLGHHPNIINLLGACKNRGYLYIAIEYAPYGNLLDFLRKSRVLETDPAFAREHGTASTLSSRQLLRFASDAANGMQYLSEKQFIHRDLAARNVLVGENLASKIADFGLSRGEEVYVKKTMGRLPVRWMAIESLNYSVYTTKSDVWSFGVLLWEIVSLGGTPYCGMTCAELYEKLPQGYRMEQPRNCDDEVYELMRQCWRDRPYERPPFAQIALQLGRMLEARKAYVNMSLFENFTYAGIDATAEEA

B1: E3: human anti-Tie1 antibody from phage Fab library, reformatted as IgG; HC variable SEQ ID NO:114, LC variable SEQ ID NO:116 (antibody, V domains shown)
VH: EVQLLESGGGLVQPGGSLRLSCAASGFTFSMYGMVWVRQAPGKGLEWVSVISPSGGNTGYADSVKGRFTISRDNSKNTLYLQVNSLRAEDTAVYYCARAPRGYSYGYYYWGQGTLVTVSSASTKGPSVFPLAPSSKSTSGG
VL: DIQMTQSPLSLSASVGDRVTITCRASQGIGHYLAWYQQKPGKVPKLLIYTASTLQSGVPSRFSGSGSGTDFTLTINSLQPEDVATYYCQQFNSYPHTFGQGTRLDIK
modifications: IgG constant regions; Synthetically generated peptide
- staining of breast (mammary tissue) ([1]; 10 μg/ml): brightest staining in the veins and capillaries of the mammary tissue
- staining of breast carcinoma ([1]; 10 μg/ml): stained also other structures in addition to vessels
- staining of hypernephroma tissue ([1]; 10 μg/ml): clear staining
- staining of kidney ([1]; 10 μg/ml): stained kidney tubules in addition to the vessels
- staining of lung carcinoma ([1]; 10 μg/ml): stained structures other than vessels
- staining of melanoma tissue ([1]; 10 μg/ml): also stained other surrounding structures
- staining of normal lung ([1]; 10 μg/ml): stained especially clearly the large veins in the lung
- staining of normal skin ([1]; 10 μg/ml): stained blood vessels very faintly
- tissue specificity of vessel staining in normal tissues ([1]; biotinylated antibody 10 μg/ml): stained vessels in the lung and kidney but not in the skin

B2: parental E3 Fab: soluble Fab fragment of the parental E3 anti-Tie1 antibody (antibody, V domains shown)
VH: B1 VH
VL: B1 VL
- koff ([2]; Human Tie1 Fc coated on CM5): 0.00105 s⁻¹
- kon ([2]; Human Tie1 Fc coated on CM5, 750 RU): 88100 M⁻¹ s⁻¹

— patent US20100196361A1, “Method of inhibition of vascular development using an antibody” (DYAX CORP., priority 2003, published 2010)
